Reference: patent publication US20140227262A1, “PD-1 Antagonists and Methods for Treating Infectious Disease” (AMPLIMMUNE, INC., priority 2008, published 2014)
Residue numbers refer to the chain shown, from its start. Numbers in names are those of the source. One block for each molecule: values may come before it.

How the values were obtained:
[1] = system: CT26 colorectal tumor cells; test: Established CT26 colorectal tumor model; conditions: 100 mg/kg cyclophosphamide on day 10, alone
From the text: Balb/C mice at age of 9 to 11 weeks were implanted subcutaneously with 1.0×10^5 CT26 colorectal tumor cells.

[2] = biological target: T1, recombinant human PD-1/Fc (Homo sapiens, UniProt Q15116); test: PD-1 binding ELISA, human B7-DC-Ig; conditions: four different lots, FIG. 1A
T1 construct: Fc (immunoglobulin Fc fusion partner); purchased R&D Systems
Method: (§1) 96-well ELISA plates were coated with 100 μL 0.75 ug/mL recombinant human PD-1/Fc (R&D Systems) diluted in BupH Carbonate/Bicarbonate pH 9.4 buffer (Pierce) for 2 hours and then blocked with BSA solution (Jackson ImmunoResearch) for 90-120 minutes. […] Absorbance at 450 nm was read using a plate reader (Molecular Devices) and data were analyzed in SoftMax using a 4-parameter logistic fit.

[3] = biological target: T2, recombinant mouse PD-1/Fc (Mus musculus, UniProt Q02242); test: PD-1 binding ELISA, murine B7-DC-Ig; conditions: FIG. 1B
T2 construct: Fc (immunoglobulin Fc fusion partner); purchased R&D Systems
Method: as §1, with “mouse” for “human”, “(Candor-Bioscience)” for “(Jackson ImmunoResearch)”, “90” for “90-120”

T2 sequence (Q02242 with tags, fused parts or gaps limits assumed): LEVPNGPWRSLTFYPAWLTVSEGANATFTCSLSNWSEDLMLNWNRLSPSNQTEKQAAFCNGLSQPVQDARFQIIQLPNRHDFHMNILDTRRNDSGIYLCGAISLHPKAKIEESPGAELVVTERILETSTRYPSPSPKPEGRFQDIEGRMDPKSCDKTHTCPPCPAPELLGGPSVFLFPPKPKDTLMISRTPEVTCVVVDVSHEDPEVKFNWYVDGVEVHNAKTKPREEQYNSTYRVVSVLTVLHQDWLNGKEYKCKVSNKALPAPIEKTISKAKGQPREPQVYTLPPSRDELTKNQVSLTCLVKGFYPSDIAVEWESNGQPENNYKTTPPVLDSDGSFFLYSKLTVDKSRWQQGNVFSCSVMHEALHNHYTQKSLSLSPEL
T1 sequence (Q15116 with tags, fused parts or gaps limits assumed): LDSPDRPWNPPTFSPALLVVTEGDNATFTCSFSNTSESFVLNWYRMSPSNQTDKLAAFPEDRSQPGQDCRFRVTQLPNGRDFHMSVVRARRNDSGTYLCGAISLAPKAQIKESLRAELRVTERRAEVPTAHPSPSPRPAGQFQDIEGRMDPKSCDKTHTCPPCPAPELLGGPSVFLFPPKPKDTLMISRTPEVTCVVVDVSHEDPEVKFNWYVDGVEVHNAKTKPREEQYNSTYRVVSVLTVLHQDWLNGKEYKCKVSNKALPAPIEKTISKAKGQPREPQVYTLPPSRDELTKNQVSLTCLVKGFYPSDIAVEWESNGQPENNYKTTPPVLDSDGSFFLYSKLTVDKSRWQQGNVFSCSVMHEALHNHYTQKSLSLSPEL

Molecule: O=P1(N(CCCl)CCCl)NCCCO1 (centres unmarked) [CTX, cyclophosphamide]
outcome of tumor-bearing mice (death or euthanasia) [1]: died as a result of tumor growth or were euthanized

B2: D111S: murine B7-DC-Ig with the D111S substitution (protein)
chain: LFTVTAPKEVYTVDVGSSVSLECDFDRRECTELEGIRASLQKVENDTSLQSERATLLEEQLPLGKALFHIPSVQVRDSGQYRCLVICGAAWSYKYLTVKVKASYMRIDTRILEVPGTGEVQLTCQARGYPLAEVSWQNVSVPANTSHIRTPEGLYQVTSVLRLKPQPSRNFSCMFWNAHMKELTSAIIDPLSRMEPKVPRTWEPRGPTIKPCPPCKCPAPNLLGGPSVFIFPPKIKDVLMISLSPIVTCVVVDVSEDDPDVQISWFVNNVEVHTAQTQTHREDYNSTLRVVSALPIQHQDWMSGKEFKCKVNNKDLPAPIERTISKPKGSVRAPQVYVLPPPEEEMTKKQVTLTCMVTDFMPEDIYVEWTNNGKTELNYKNTEPVLDSDGSYFMYSKLRVEKKNWVERNSYSCSVVHEGLHNHHTTKSFSRTPGK
binding to PD-1 in PD-1 binding ELISA (OD450) [3]: reduced binding to PD-1

B3: K113S: murine B7-DC-Ig with the K113S substitution (protein)
chain: B2 chain with S92D, K94S
binding to PD-1 in PD-1 binding ELISA (OD450) [3]: reduced binding to PD-1

Results, then the molecule that gave them:

binding to PD-1 in PD-1 binding ELISA (OD450) [2]: binding to PD-1
Molecule: human B7-DC-Ig: human PD-L2 (B7-DC) fusion protein; representative sequence SEQ ID NO: 56/57

binding to PD-1 in PD-1 binding ELISA (OD450) [3]: binding to PD-1
B1: wild type murine B7-DC-Ig: murine PD-L2 (B7-DC) fusion protein; representative sequence SEQ ID NO: 53/54 (protein, listed as Mus musculus)
chain: MLLLLPILNLSLQLHPVAALFTVTAPKEVYTVDVGSSVSLECDFDRRECTELEGIRASLQKVENDTSLQSERATLLEEQLPLGKALFHIPSVQVRDSGQYRCLVICGAAWDYKYLTVKVKASYMRIDTRILEVPGTGEVQLTCQARGYPLAEVSWQNVSVPANTSHIRTPEGLYQVTSVLRLKPQPSRNFSCMFWNAHMKELTSAIIDPLSRMEPKVPRTWEPRGPTIKPCPPCKCPAPNLLGGPSVFIFPPKIKDVLMISLSPIVTCVVVDVSEDDPDVQISWFVNNVEVHTAQTQTHREDYNSTLRVVSALPIQHQDWMSGKEFKCKVNNKDLPAPIERTISKPKGSVRAPQVYVLPPPEEEMTKKQVTLTCMVTDFMPEDIYVEWTNNGKTELNYKNTEPVLDSDGSYFMYSKLRVEKKNWVERNSYSCSVVHEGLHNHHTTKSFSRTPGK
